Drawing on US20230125550A1 (ARCELLX, published 2023), this text covers ELISA_avg for 40 molecules.

For this assay, the target named is T1, recombinant human CD123-Fc (human, UniProt P26951 19-305).
T1 construct: not shown: Fc part of CD123-Fc
T1 sequence: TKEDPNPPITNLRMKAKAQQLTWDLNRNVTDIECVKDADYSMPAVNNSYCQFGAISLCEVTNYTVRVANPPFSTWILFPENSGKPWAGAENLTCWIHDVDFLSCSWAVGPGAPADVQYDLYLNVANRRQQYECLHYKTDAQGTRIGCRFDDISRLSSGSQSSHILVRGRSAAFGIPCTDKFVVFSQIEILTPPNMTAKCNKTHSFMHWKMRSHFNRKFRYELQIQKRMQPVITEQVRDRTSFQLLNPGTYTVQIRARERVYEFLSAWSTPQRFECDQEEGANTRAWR
Put plainly: phage ELISA, captured CD123-Fc. The method in brief: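 Phage from BCMA panning colonies were rescued with VCSM13 helper phage and diluted 5× in blocking buffer. Plates coated with anti-human IgG1-Fc captured 5 nM target-Fc or IgG1-Fc, and binding was detected with HRP anti-M13. Ratio = A450 target/A450 IgG1-Fc, averaged over the clone's wells.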

B1: SEQ ID NO: 566 (designed binder)
chain: MGSWSEFWFRLDAIEDRLWALGGSEAELAEFEDNIALFEYSLQHYKGKGNPEVEALVKEANAIDDELGAYRHN
notes: D domain, on phage
In the case of B1, the ELISA_avg is 4.5 ratio A450 target/IgG1-Fc.

B2: SEQ ID NO: 572 (designed binder)
chain: MGSWAEFDSRLIAIFDRLWALGGSEAELAWFEDDIAQFEQHLQAYKGKGNPEVEALRQEADAITFELKAYRHN
notes: D domain, on phage
On to B2, for which the ELISA_avg came to 3.6 ratio A450 target/IgG1-Fc.

B3: SEQ ID NO: 559 (designed binder)
chain: MGSWTEFTQRLEAIVDRLFALGGSEAELAEFENSIADFEWDLQWYKGKGNPEVEALNREAVAIDNELWAYRHN
notes: D domain, on phage
On to B3, for which the ELISA_avg was determined as 3.9 ratio A450 target/IgG1-Fc.

B4: SEQ ID NO: 595 (designed binder)
chain: MGSWTEFDERLDAIDWRLEALGGSEAELAWFEGDIALFEQYLQVYKGKGNPEVEALMEEADAIKAELDAYRHN
notes: D domain, on phage
Turning to B4, the ELISA_avg stood at 4.5 ratio A450 target/IgG1-Fc.

B5: SEQ ID NO: 594 (designed binder)
chain: MGSWVEFDSRLAAIDYRLEALGGSEAELAWFEYTIANFEHTLQMYKGKGNPEVEALVYEAHAIATELQAYRHN
notes: D domain, on phage
With B5, the ELISA_avg is 3.4 ratio A450 target/IgG1-Fc.

B6: SEQ ID NO: 581 (designed binder)
chain: MGSWYEFSSRLNAIDDRLWALGGSEAELAYFETDIADFESLLQWYKGKGNPEVEALLNEADAIDYELYAYRHN
notes: D domain, on phage
With B6, the ELISA_avg came to 3.8 ratio A450 target/IgG1-Fc.

B7: SEQ ID NO: 569 (designed binder)
chain: MGSWNEFVERLSAIDHRLWALGGSEAELADFEQQIAEFEIHLQEYKGKGNPEVEALDFEADAIFDELLAYRHN
notes: D domain, on phage
Turning to B7, the ELISA_avg was 3.2 ratio A450 target/IgG1-Fc.

B8: SEQ ID NO: 578 (designed binder)
chain: MGSWYEFVSRLDAIEYRLWALGGSEAELAWFEWDIADFEQGLQFYKGKGNPEVEALAQEANAIGSELTAYRHN
notes: D domain, on phage
B8: the ELISA_avg was 3.2 ratio A450 target/IgG1-Fc.

B9: SEQ ID NO: 584 (designed binder)
chain: MGSWHEFEERLMAIEDRLWALGGSEAELAEFEQWIALFEYDLQEYKGKGNPEVEALGMEAFAINNELSAYRHN
notes: D domain, on phage
Consider B9, for which the ELISA_avg was 5.8 ratio A450 target/IgG1-Fc.

B10: SEQ ID NO: 587 (designed binder)
chain: MGSWIEFEDRLDAITDRLWALGGSEAELAEFEHQIAFFEEDLQWYKGKGNPEVEALHMEAEAIMEELGAYRHN
notes: D domain, on phage
In the case of B10, the ELISA_avg came to 9.5 ratio A450 target/IgG1-Fc.

B11: SEQ ID NO: 597 (designed binder)
chain: MGSWWEFDSRLDAIDFRLWALGGSEAELAWFEVEIADFEDWLQLYKGKGNPEVEALWHEADAIVTELYAYRHN
notes: D domain, on phage
For B11, the ELISA_avg was 3.2 ratio A450 target/IgG1-Fc.

B12: SEQ ID NO: 567 (designed binder)
chain: MGSWYEFWDRLTAIEHRLWALGGSEAELAYFEDSIAHFEGSLQVYKGKGNPEVEALYKEAEAIEWELEAYRHN
notes: D domain, on phage
For the molecule B12, the ELISA_avg amounted to 4.4 ratio A450 target/IgG1-Fc.

B13: SEQ ID NO: 568 (designed binder)
chain: MGSWYEFDDRLWAIFDRLFALGGSEAELAFFEDSIAEFEEELQHYKGKGNPEVEALYLEAWAIENELGAYRHN
notes: D domain, on phage
Consider B13, for which the ELISA_avg was 4.7 ratio A450 target/IgG1-Fc.

B14: SEQ ID NO: 588 (designed binder)
chain: MGSWMEFEDRLMAIVDRLWALGGSEAELADFEWNIAMFEEELQWYKGKGNPEVEALGDEAEAIEWELYAYRHN
notes: D domain, on phage
Consider B14, for which the ELISA_avg came out at 6.8 ratio A450 target/IgG1-Fc.

B15: SEQ ID NO: 574 (designed binder)
chain: MGSWYEFEDRLAAIWDRLNALGGSEAELAIFEWDIAWFEEGLQEYKGKGNPEVEALKHEASAIQTELFAYRHN
notes: D domain, on phage
On to B15, for which the ELISA_avg is 6.4 ratio A450 target/IgG1-Fc.

B16: SEQ ID NO: 586 (designed binder)
chain: MGSWHEFEKRLYAIEDRLIALGGSEAELAWFEDSIAWFEWDLQMYKGKGNPEVEALNEEADAIYQELDAYRHN
notes: D domain, on phage
As to B16, the ELISA_avg came to 3.6 ratio A450 target/IgG1-Fc.

B17: SEQ ID NO: 592 (designed binder)
chain: MGSWFEFDDRLEAIFDRLWALGGSEAELAMFEFAIAEFEDALQEYKGKGNPEVEALYEEAVAIDEELYAYRHN
notes: D domain, on phage
Consider B17, for which the ELISA_avg amounted to 4.1 ratio A450 target/IgG1-Fc.

B18: SEQ ID NO: 558 (designed binder)
chain: MGSWNEFYERLEAIDRRLFALGGSEAELALFEWMIADFEDDLQMYKGKGNPEVEALINEAGAIGFELEAYRHN
notes: D domain, on phage
Consider B18, for which the ELISA_avg is 5.2 ratio A450 target/IgG1-Fc.

B19: SEQ ID NO: 590 (designed binder)
chain: MGSWEEFLFRLEAIQDRLWALGGSEAELAWFEYEIASFEDVLQSYKGKGNPEVEALSTEAKAIDYELFAYRHN
notes: D domain, on phage
On to B19, for which the ELISA_avg turned out to be 8.2 ratio A450 target/IgG1-Fc.

B20: SEQ ID NO: 596 (designed binder)
chain: MGSWIEFDERLDAIDFRLWALGGSEAELAWFEGWIAEFESDLQLYKGKGNPEVEALNEEANAIFHELSAYRHN
notes: D domain, on phage
As to B20, the ELISA_avg is 7 ratio A450 target/IgG1-Fc.

B21: SEQ ID NO: 562 (designed binder)
chain: MGSWYEFNMRLGAIDDRLQALGGSEAELAWFEDMIAIFEDDLQIYKGKGNPEVEALEQEAAAIHQELWAYRHN
notes: D domain, on phage
Take B21: the ELISA_avg was 3.8 ratio A450 target/IgG1-Fc.

B22: SEQ ID NO: 579 (designed binder)
chain: MGSWEEFDYRLYAIQDRLYALGGSEAELAFFEWEIADFEHMLQMYKGKGNPEVEALFQEADAIDAELHAYRHN
notes: D domain, on phage
In the case of B22, the ELISA_avg was 4.4 ratio A450 target/IgG1-Fc.

B23: SEQ ID NO: 583 (designed binder)
chain: MGSWLEFEYRLDAIYDRLFALGGSEAELAAFEQDIADFEKYLQYYKGKGNPEVEALWEEADAIMWELFAYRHN
notes: D domain, on phage
Turning to B23, the ELISA_avg amounted to 3.1 ratio A450 target/IgG1-Fc.

B24: SEQ ID NO: 575 (designed binder)
chain: MGSWLEFESRLWAIWDRLDALGGSEAELAHFEQDIADFEMSLQEYKGKGNPEVEALIREAEAIETELYAYRHN
notes: D domain, on phage
For the molecule B24, the ELISA_avg turned out to be 3.4 ratio A450 target/IgG1-Fc.

B25: SEQ ID NO: 591 (designed binder)
chain: MGSWVEFDNRLFAIDERLWALGGSEAELAWFEEEIASFEDNLQKYKGKGNPEVEALQLEAFAIMEELDAYRHN
notes: D domain, on phage
For B25, the ELISA_avg worked out at 3.3 ratio A450 target/IgG1-Fc.

B26: SEQ ID NO: 576 (designed binder)
chain: MGSWMEFEDRLIAIWARLDALGGSEAELAWFEADIADFEESLQEYKGKGNPEVEALIFEAIAINKELMAYRHN
notes: D domain, on phage
Consider B26, for which the ELISA_avg came out at 3.7 ratio A450 target/IgG1-Fc.

B27: SEQ ID NO: 565 (designed binder)
chain: MGSWFEFDQRLDAITFRLWALGGSEAELAEFEDVIALFEYHLQDYKGKGNPEVEALEVEAWAIFHELGAYRHN
notes: D domain, on phage
In the case of B27, the ELISA_avg is 3.2 ratio A450 target/IgG1-Fc.

B28: SEQ ID NO: 577 (designed binder)
chain: MGSWFEFTIRLEAIQDRLDALGGSEAELAWFEWDIAEFEEGLQFYKGKGNPEVEALHTEADAIMNELVAYRHN
notes: D domain, on phage
For B28, the ELISA_avg stood at 3.5 ratio A450 target/IgG1-Fc.

B29: SEQ ID NO: 560 (designed binder)
chain: MGSWVEFIMRLDAIYERLDALGGSEAELAEFEWHIADFEDHLQWYKGKGNPEVEALFEEADAIWEELWAYRHN
notes: D domain, on phage
B29: the ELISA_avg was 6.4 ratio A450 target/IgG1-Fc.

B30: SEQ ID NO: 585 (designed binder)
chain: MGSWYEFEERLDAIEDRLIALGGSEAELAIFEDIIAFFEQDLQYYKGKGNPEVEALEMEAEAISIELDAYRHN
notes: D domain, on phage
With B30, the ELISA_avg worked out at 4.1 ratio A450 target/IgG1-Fc.

B31: SEQ ID NO: 580 (designed binder)
chain: MGSWIEFFHRLDAIQDRLDALGGSEAELAYFEWAIADFEHMLQLYKGKGNPEVEALQFEAFAIEGELYAYRHN
notes: D domain, on phage
On to B31, for which the ELISA_avg was 3.5 ratio A450 target/IgG1-Fc.

B32: SEQ ID NO: 589 (designed binder)
chain: MGSWEEFEDRLFAIDSRLWALGGSEAELAEFENIIASFEEVLQEYKGKGNPEVEALSVEAFAIDRELGAYRHN
notes: D domain, on phage
Turning to B32, the ELISA_avg amounted to 3.7 ratio A450 target/IgG1-Fc.

B33: SEQ ID NO: 573 (designed binder)
chain: MGSWTEFEERLEAIWDRLYALGGSEAELAAFEWDIAYFEDGLQEYKGKGNPEVEALFMEAEAIIRELKAYRHN
notes: D domain, on phage
On to B33, for which the ELISA_avg came out at 5.9 ratio A450 target/IgG1-Fc.

B34: SEQ ID NO: 570 (designed binder)
chain: MGSWSEFVDRLDAIFDRLWALGGSEAELAWFEDTIAHFEWNLQEYKGKGNPEVEALNGEADAITDELHAYRHN
notes: D domain, on phage
Turning to B34, the ELISA_avg was 5.3 ratio A450 target/IgG1-Fc.

B35: SEQ ID NO: 564 (designed binder)
chain: MGSWYEFYERLWAIDDRLWALGGSEAELAEFEDSIATFEPSLQMYKGKGNPEVEALVAEAWAIFDELAAYRHN
notes: D domain, on phage
With B35, the ELISA_avg turned out to be 3.6 ratio A450 target/IgG1-Fc.

B36: SEQ ID NO: 593 (designed binder)
chain: MGSWFEFDARLMAINDRLWALGGSEAELAAFEYHIALFEDQLQMYKGKGNPEVEALTLEAVAINEELWAYRHN
notes: D domain, on phage
On to B36, for which the ELISA_avg turned out to be 4 ratio A450 target/IgG1-Fc.

B37: SEQ ID NO: 561 (designed binder)
chain: MGSWNEFLLRLDAIEHRLFALGGSEAELAEFEWEIADFEDDLQWYKGKGNPEVEALVEEAEAIDVELVAYRHN
notes: D domain, on phage
As for B37, the ELISA_avg is 3.2 ratio A450 target/IgG1-Fc.

B38: SEQ ID NO: 582 (designed binder)
chain: MGSWFEFEYRLDAIIDRLFALGGSEAELAEFESMIANFEYSLQEYKGKGNPEVEALYFEADAIVDELTAYRHN
notes: D domain, on phage
On to B38, for which the ELISA_avg worked out at 4 ratio A450 target/IgG1-Fc.

B39: SEQ ID NO: 571 (designed binder)
chain: MGSWAEFDSRLDAIAQRLFALGGSEAELAHFEDFIAQFEYSLQEYKGKGNPEVEALSNEADAIFNELKAYRHN
notes: D domain, on phage
Take B39: the ELISA_avg is 3.6 ratio A450 target/IgG1-Fc.

B40: SEQ ID NO: 563 (designed binder)
chain: MGSWEEFHWRLGAIDARLEALGGSEAELAWFEDGIADFEAILQDYKGKGNPEVEALDSEAVAIHHELWAYRHN
notes: D domain, on phage
As to B40, the ELISA_avg amounted to 3.3 ratio A450 target/IgG1-Fc.
